# T1: OX40蛋白胞外区与小鼠IgG2a-FC的融合蛋白 (human; mouse, UniProt P43489 29-214)
# T1 construct: also called 抗原OX40小鼠IgG2a Fc标签蛋白; 实施例1中的融合蛋白; not shown: Mouse IgG2a Fc, from Genbank AAH31470.1
# T1 sequence: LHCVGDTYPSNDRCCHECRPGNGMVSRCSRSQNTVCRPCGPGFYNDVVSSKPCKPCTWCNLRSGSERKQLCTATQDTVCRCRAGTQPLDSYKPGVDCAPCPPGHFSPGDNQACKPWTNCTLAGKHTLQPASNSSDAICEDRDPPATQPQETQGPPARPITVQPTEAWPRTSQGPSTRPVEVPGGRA
# Target: T1, OX40蛋白胞外区与小鼠IgG2a-FC的融合蛋白
# Test: SPR, Biacore T200, antibody captured on CM5 chip, OX40-mouse IgG2a Fc as analyte
row,Binder,Kd [nM]
1,"抗体H1K1 (antibody, V domains shown) VH: EVQLQQPGSVLVRPGTSVKLSCKASGYTFTSSWIHWARQRPGQGLEWIGDIHPNSGNTNYNEKFKGKATLTVDTSSSTAYVDLSSLTSEDSAVYYCVRSYGNYKDYYGMDYWGQGTSVTVSS VL: DILMTQSPASLAVSLGQRATISCKASQSVDYDGDSYMNWYQQKPGQPPKLLIYAASNLESGIPARFSGSGSGTDFTLNIHPVEEEDAATYYCQQSNEDPYTFGGGTKLEIKR",11
2,"抗体H1E6 (antibody, V domains shown) VH: EVKLVESGAELVKPGTSVRLSCKASGYTFTSYDINWVRQRPEQGLEWIGWIFPGDGSTKYNEKFKGKATLTTDKSSSTVYMQLSRLTSEDSAVYFCARWDGYYEGDYFDNWGQGTTLTVSS VL: DIVMTQSPSSLSASLGGKVTITCKASQDINKYIAWYQHKPGKGPRLLIHYTSTLQPGIPSRFSGSGSGRDYSFNISNLEPEDIATYYCLQYVNLYTFGGGTKLEIKR",5.1
3,"抗体I3E3 (antibody, V domains shown) VH: EVKLVESGGGLVQPGGSLRLSCATSGFTFSDFYMGWVRQPPGKRLEWIAASRNKAYDYTTAYSASVKGRFIVSRDTSQSILYLQMNALRAEDTAIYYCARDDGYYPMDYWGQGTSVTVSS VL: DIQLTQSPASLAVSLGQRATISCRASKSVSTSGYSYMHWYQQKPGQPPKLLIYLASNLESGVPARFSGSGSGTDFTLNIHPVEEEDAATYYCQHSRELPLTFGAGTKLELKR",4.4

# From patent CN111393529A (KANGYUAN BOCHUANG BIO TECH BEIJING CO LTD, dated 2020)
